{"source": "patent US20120264693A1", "about": "“COMPOUNDS ACTING AS PEPTIDE GAP JUNCTION MODULATORS, AND USES THEREOF” (Zealand Pharma A/S, priority 2009, published 2012)", "key": {"recombinant rat Cx43CT": {"target": "recombinant rat Cx43CT (Rattus norvegicus, UniProt P08050)", "sequence (P08050 229-382 limits assumed)": "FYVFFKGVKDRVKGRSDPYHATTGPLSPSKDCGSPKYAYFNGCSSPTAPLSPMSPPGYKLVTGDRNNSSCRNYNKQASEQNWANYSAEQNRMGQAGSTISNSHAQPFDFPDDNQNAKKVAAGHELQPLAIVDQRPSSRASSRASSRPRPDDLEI", "assay": "Surface plasmon resonance (SPR) binding of peptides to immobilised Cx43CT", "conditions": "for binding to the Cx43CT (in words): SPR, FIG. 1 / Table 2; for (ru * 100)/Mw: response normalised to molecular weight", "source_text": "FIG. 1. SPR results for compounds (peptides) ZP2769 and ZP2771. Recombinant rat Cx43CT was covalently bound to a carboxylmethyl dextran matrix and used as ligand. Peptides were presented to the bound ligand, and the amplitude of the response was subtracted from that obtained from a control chamber with no ligand. If no change in angle of resonance was observed, this was taken as an indication of absence of binding. The amplitude of the change in angle of resonance (expressed as “response units”) is a function of the molecular mass of the analyte, and for comparison purposes response units were therefore normalized taking into account the molecular weight of the tested compound. Change in angle of incidence of resonance (in “resonance units”) was plotted against time after onset of cyclic peptide exposure. The various curves correspond to different applied concentrations of the peptide in question, as follows:\nCompounds of the present invention may be tested for binding to the carboxyl terminal domain of Cx43 using Surface Plasmon Resonance (“SPR”). SPR is a technique that was used to identify the original RXPE sequence (Shibayama et al., “Identification of a Novel Peptide that Interferes with the Chemical Regulation of Connexin-43,” Circ. Res. 98:1365-72 (2006)). The concentration of the compound relative to the amplitude of the response in arbitrary units is measured.\nRecombinant Cx43CT is covalently bound to a carboxylmethyl dextran matrix (Salemon et al., “Surface Plasmon Resonance Spectroscopy as a Tool for Investigating the Biochemical and Biophysical Properties of Membrane Protein Systems. II: Applications to Biological Systems,” Biochim. Biophys. Acta 1331(2):131-152 (1997)). Specific peptide compounds are presented and, when feasible, dissociation constants (KD) are calculated from the time course of binding and unbinding of the ligand, using a 1:1 (Langmuir) association and dissociation kinetic model (Biacore software package). In both phases (association and dissociation), the first 5-8 seconds of recording are not included in the fit, to avoid artifacts resulting from peptide distribution within the flow cells (Lang et al., “Surface Plasmon Resonance as a Method to Study the Kinetics and Amplitude of Protein-protein Binding,” in Practical Methods in Cardiovascular Research 936-947 (Stefan Dhein, Friedrich Wilhelm Mohr & Mario Delmar eds., 2005). In the present experiments recombinant rat Cx43CT was covalently bound to a carboxylmethyl-dextran matrix and used as ligand.\nExamples of the cyclic peptide compounds of the present invention were presented to the bound ligand, and the amplitude of the response was subtracted from that obtained from a control chamber with no ligand. No change in angle of resonance was taken as an indication of absence of binding. The amplitude of the change in angle of resonance (expressed as “response units”) is a function of the molecular mass of the analyte and for comparison purposes response units were normalized taking account of the molecular weight of the tested compound. Change in angle of incidence of resonance (in “resonance units”) was plotted against time after onset of cyclic peptide exposure.\nSPR allows for assessment of ligand-analyte binding in real time, and was used for characterization of two of the cyclic peptide compounds of the present invention. Cx43CT was covalently bound to the matrix of a sensor chip. […] In FIG. 1, the change in angle of incidence of resonance (in “resonance units”) is plotted against time after onset of cyclic peptide exposure. Different concentrations were applied, as indicated."}, "Cx43 [1]": {"target": "T1, Cx43 (Homo sapiens, UniProt P17302)", "T1 construct": "expressed in transfected cells; host or cells: N2a (mouse neuroblastoma) cells, transiently transfected", "T1 sequence (P17302 2-382 limits assumed)": "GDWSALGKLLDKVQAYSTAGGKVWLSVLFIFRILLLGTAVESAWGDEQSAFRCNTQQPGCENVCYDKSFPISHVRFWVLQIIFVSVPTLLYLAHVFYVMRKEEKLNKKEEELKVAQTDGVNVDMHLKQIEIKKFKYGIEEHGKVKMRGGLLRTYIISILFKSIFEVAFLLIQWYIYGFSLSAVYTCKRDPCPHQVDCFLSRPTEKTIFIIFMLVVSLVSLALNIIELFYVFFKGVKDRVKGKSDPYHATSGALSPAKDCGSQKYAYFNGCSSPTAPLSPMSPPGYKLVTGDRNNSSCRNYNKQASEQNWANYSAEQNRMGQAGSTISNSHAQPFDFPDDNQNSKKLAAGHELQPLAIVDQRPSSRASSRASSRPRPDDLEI", "assay": "Octanol-induced uncoupling, dual-cell patch clamp, junctional conductance (Gj) in Cx43-expressing N2A cell pairs", "format": "cell-based, mouse", "conditions": "for cells remaining coupled ten minutes after the onset of octanol superfusion: peptide 100 μM in pipette, 1.5 mM octanol, 10 min; for effect on octanol-induced decrease of Gj compared to control (in words): 1.5 mM octanol perfusion", "method": "FIG. 2. Time course of octanol-induced uncoupling in human Cx43-expressing N2A cells. Cell pairs were recorded with patch pipettes that contained either ZP2778 (0.1 mM; upper curve/trace), or only the internal pipette filling solution (control; lower curve/trace). Experiments were conducted using the dual-cell patch clamp technique, and 1.5 mM octanol perfusion was started at Time=0.\n(§1) Patch clamp experiments were conducted in N2a cells transiently transfected with Cx43. In all cases, the dual-whole-cell voltage clamp technique was used to record gap junction currents. Specifics for cell culture, transfection and recordings are described in Shibayama et al. (Identification of a novel peptide that interferes with the chemical regulation of connexin 43. Circ Res 2006 98:1365-72). Octanol superfusion was initiated 5 minutes after patch break and continued for 10 minutes. Concentration of octanol was 1.5 mM in all experiments. Peptides were diluted in the internal pipette solution to a final concentration of 100 μM. A total of 20 experiments were carried out where octanol-induced uncoupling was tested in the absence of peptides. These experiments were averaged, and data used as control for comparison with those series where a given peptide was assessed. Patch clamp experiments were also conducted (cf. FIG. 6 herein) using ventricular myocytes from neonatal Sprague-Dawley rats (rats supplied by Charles River, Mass. USA), isolated and cultured according to Rohr et al. (see Circ. Res. 1991; 68: 114-130, and J. Cardiovasc. Electrophysiol. 1995; 6: 551-568).\nJunctional conductance (Gj) was measured in N2a cell pairs expressing Cx43. Patch pipettes were filled with an internal solution containing the specific peptide under study, and the time course and extent of octanol-induced uncoupling was compared to that observed in the absence of the peptide. FIGS. 2-5 show average measurements of junctional conductance and percent of coupled cells recorded at various times after the onset of octanol superfusion for the cyclized peptides ZP2769, ZP2771, ZP2778, ZP2782 and for the dissolution medium (internal pipette solution) used as control. […] For ZP2778 (FIG. 2), 60% of the cells remained coupled, while 20% remained coupled for ZP2782 (FIG. 4)."}, "Cx43 [2]": {"target": "T1, Cx43", "assay": "Acidification-induced uncoupling (pH 6.2), dual-cell patch clamp in Cx43-expressing N2A cell pairs", "conditions": "peptide 0.1 mM in patch pipette, N2A cells", "method": "FIG. 6. Upper graph: Time course of acidification-induced uncoupling in human Cx43-expressing N2A cells. Cell pairs were recorded with patch pipettes that contained either ZP2771 (0.1 mM; upper curve), or only the internal pipette filling solution buffered to pH 6.2 (control; lower curve). Experiments were conducted using the dual-cell patch clamp technique.\nas §1, with “Patch clamp experiments were also conducted (cf. FIG. 6 herein) using ventricular myocytes from neonatal Sprague-Dawley rats (rats supplied by Charles River, Mass. USA), isolated and cultured according to Rohr et al. (see Circ. Res. 1991; 68: 114-130, and J. Cardiovasc. Electrophysiol. 1995; 6: 551-568).” left out"}, "[3]": {"test_system": "neonatal rat ventricular cardiac myocytes", "assay": "Acidification-induced uncoupling (pH 6.2), dual-cell patch clamp in neonatal rat ventricular cardiac myocytes", "format": "cell-based", "conditions": "peptide 0.1 mM buffered to pH 6.2", "method": "Lower graph: Time course of acidification-induced uncoupling in neonatal rat ventricular cardiac myocytes. Cell pairs were recorded with patch pipettes that contained (i) ZP2771 (0.1 mM, buffered to pH 6.2; uppermost curve; filled square symbols), (ii) linear peptide RRPPYR (0.1 mM buffered to pH 6.2; middle curve; filled triangle symbols), or (iii) only the internal pipette filling solution buffered to pH 6.2 (lowermost curve; filled circle symbols). Experiments were conducted using the dual-cell patch clamp technique.\nas §1"}, "[4]": {"conditions": "peptide 0.1 mM in patch pipette"}}, "data": [{"substance": "Cyclo(RRPPYRQ) (cyclic) [ZP2771]", "values": [{"measurement": "binding to the Cx43CT (in words)", "setting": "recombinant rat Cx43CT", "result": "significant binding"}, {"measurement": "Resonance Units (ru)", "setting": "recombinant rat Cx43CT; peptide conc 0.008 mM", "result": 27.6, "unit": "ru"}, {"measurement": "(ru * 100)/Mw", "setting": "recombinant rat Cx43CT; peptide conc 0.008 mM", "result": 2.89}, {"measurement": "Resonance Units (ru)", "setting": "recombinant rat Cx43CT; peptide conc 0.016 mM", "result": 58.1, "unit": "ru"}, {"measurement": "(ru * 100)/Mw", "setting": "recombinant rat Cx43CT; peptide conc 0.016 mM", "result": 6.09}, {"measurement": "Resonance Units (ru)", "setting": "recombinant rat Cx43CT; peptide conc 0.031 mM", "result": 95.8, "unit": "ru"}, {"measurement": "(ru * 100)/Mw", "setting": "recombinant rat Cx43CT; peptide conc 0.031 mM", "result": 10.05}, {"measurement": "Resonance Units (ru)", "setting": "recombinant rat Cx43CT; peptide conc 0.063 mM", "result": 192.4, "unit": "ru"}, {"measurement": "(ru * 100)/Mw", "setting": "recombinant rat Cx43CT; peptide conc 0.063 mM", "result": 20.18}, {"measurement": "Resonance Units (ru)", "setting": "recombinant rat Cx43CT; peptide conc 0.125 mM", "result": 323.6, "unit": "ru"}, {"measurement": "(ru * 100)/Mw", "setting": "recombinant rat Cx43CT; peptide conc 0.125 mM", "result": 33.94}, {"measurement": "Resonance Units (ru)", "setting": "recombinant rat Cx43CT; peptide conc 0.250 mM", "result": 574.0, "unit": "ru"}, {"measurement": "(ru * 100)/Mw", "setting": "recombinant rat Cx43CT; peptide conc 0.250 mM", "result": 60.20}, {"measurement": "Resonance Units (ru)", "setting": "recombinant rat Cx43CT; peptide conc 0.500 mM", "result": 896.0, "unit": "ru"}, {"measurement": "(ru * 100)/Mw", "setting": "recombinant rat Cx43CT; peptide conc 0.500 mM", "result": 93.97}, {"measurement": "Resonance Units (ru)", "setting": "recombinant rat Cx43CT; peptide conc 1.000 mM", "result": 1253.0, "unit": "ru"}, {"measurement": "(ru * 100)/Mw", "setting": "recombinant rat Cx43CT; peptide conc 1.000 mM", "result": 131.41}, {"measurement": "cells remaining coupled ten minutes after the onset of octanol superfusion", "setting": "Cx43 [1]", "result": "all cells remained coupled"}, {"measurement": "effect on octanol-induced decrease of Gj compared to control (in words)", "setting": "Cx43 [1]; [4]", "result": "significantly (p<0.05) prevented the decrease of Gj"}, {"measurement": "Gj at the end of the experiment", "setting": "Cx43 [1]; peptide 0.1 mM in patch pipette, after 10 minutes of 1.5 mM octanol perfusion", "result": "approximately 0.65"}, {"measurement": "Gj fifteen minutes (900 sec) after patch break", "setting": "Cx43 [2]", "result": "approximately 0.49"}, {"measurement": "effect on acidification-induced decrease of Gj compared to control (in words)", "setting": "Cx43 [2]", "result": "significantly (p=0.002) prevented the decrease of Gj"}, {"measurement": "Gj fifteen minutes after patch break", "setting": "[3]", "result": "approximately 0.47"}, {"measurement": "effect on acidification-induced decrease of Gj compared to linear peptide and control (in words)", "setting": "[3]", "result": "significantly (p=0.006) prevented the decrease of Gj"}]}, {"substance": "RRPPYR [reference compound]", "values": [{"measurement": "Gj fifteen minutes after patch break", "setting": "[3]", "result": "approximately 0.17"}]}, {"substance": "cyclo(RRPPWN) [ZP2782]", "values": [{"measurement": "cells remaining coupled ten minutes after the onset of octanol superfusion", "setting": "Cx43 [1]", "result": 20, "unit": "%"}, {"measurement": "effect on octanol-induced decrease of Gj compared to control (in words)", "setting": "Cx43 [1]; [4]", "result": "reduction in the decrease of Gj"}]}, {"substance": "cyclo(RRPPYN) [ZP2778]", "values": [{"measurement": "cells remaining coupled ten minutes after the onset of octanol superfusion", "setting": "Cx43 [1]", "result": 60, "unit": "%"}, {"measurement": "effect on octanol-induced decrease of Gj compared to control (in words)", "setting": "Cx43 [1]; [4]", "result": "significantly (p<0.05) prevented the decrease of Gj"}]}, {"substance": "cyclo(RRPPYQ) [ZP2769]", "values": [{"measurement": "binding to the Cx43CT (in words)", "setting": "recombinant rat Cx43CT", "result": "significant binding"}, {"measurement": "Resonance Units (ru)", "setting": "recombinant rat Cx43CT; peptide conc 0.063 mM", "result": 18.6, "unit": "ru"}, {"measurement": "(ru * 100)/Mw", "setting": "recombinant rat Cx43CT; peptide conc 0.063 mM", "result": 2.33}, {"measurement": "Resonance Units (ru)", "setting": "recombinant rat Cx43CT; peptide conc 0.125 mM", "result": 29.6, "unit": "ru"}, {"measurement": "(ru * 100)/Mw", "setting": "recombinant rat Cx43CT; peptide conc 0.125 mM", "result": 3.71}, {"measurement": "Resonance Units (ru)", "setting": "recombinant rat Cx43CT; peptide conc 0.250 mM", "result": 55.8, "unit": "ru"}, {"measurement": "(ru * 100)/Mw", "setting": "recombinant rat Cx43CT; peptide conc 0.250 mM", "result": 6.99}, {"measurement": "Resonance Units (ru)", "setting": "recombinant rat Cx43CT; peptide conc 0.500 mM", "result": 101.9, "unit": "ru"}, {"measurement": "(ru * 100)/Mw", "setting": "recombinant rat Cx43CT; peptide conc 0.500 mM", "result": 12.77}, {"measurement": "Resonance Units (ru)", "setting": "recombinant rat Cx43CT; peptide conc 1.000 mM", "result": 196.2, "unit": "ru"}, {"measurement": "(ru * 100)/Mw", "setting": "recombinant rat Cx43CT; peptide conc 1.000 mM", "result": 24.59}, {"measurement": "cells remaining coupled ten minutes after the onset of octanol superfusion", "setting": "Cx43 [1]", "result": "all cells remained coupled"}, {"measurement": "effect on octanol-induced decrease of Gj compared to control (in words)", "setting": "Cx43 [1]; [4]", "result": "marked reduction in the decrease of Gj"}]}]}
